Consider 27 molecules from publication PMC10786891, “Massively parallel profiling of RNA-targeting CRISPR-Cas13d”.

T1: EsCas13d, nuclease-dead (Eubacterium siraeum, UniProt B0MS50, R295A;H300A;R849A;H854A)
T1 sequence: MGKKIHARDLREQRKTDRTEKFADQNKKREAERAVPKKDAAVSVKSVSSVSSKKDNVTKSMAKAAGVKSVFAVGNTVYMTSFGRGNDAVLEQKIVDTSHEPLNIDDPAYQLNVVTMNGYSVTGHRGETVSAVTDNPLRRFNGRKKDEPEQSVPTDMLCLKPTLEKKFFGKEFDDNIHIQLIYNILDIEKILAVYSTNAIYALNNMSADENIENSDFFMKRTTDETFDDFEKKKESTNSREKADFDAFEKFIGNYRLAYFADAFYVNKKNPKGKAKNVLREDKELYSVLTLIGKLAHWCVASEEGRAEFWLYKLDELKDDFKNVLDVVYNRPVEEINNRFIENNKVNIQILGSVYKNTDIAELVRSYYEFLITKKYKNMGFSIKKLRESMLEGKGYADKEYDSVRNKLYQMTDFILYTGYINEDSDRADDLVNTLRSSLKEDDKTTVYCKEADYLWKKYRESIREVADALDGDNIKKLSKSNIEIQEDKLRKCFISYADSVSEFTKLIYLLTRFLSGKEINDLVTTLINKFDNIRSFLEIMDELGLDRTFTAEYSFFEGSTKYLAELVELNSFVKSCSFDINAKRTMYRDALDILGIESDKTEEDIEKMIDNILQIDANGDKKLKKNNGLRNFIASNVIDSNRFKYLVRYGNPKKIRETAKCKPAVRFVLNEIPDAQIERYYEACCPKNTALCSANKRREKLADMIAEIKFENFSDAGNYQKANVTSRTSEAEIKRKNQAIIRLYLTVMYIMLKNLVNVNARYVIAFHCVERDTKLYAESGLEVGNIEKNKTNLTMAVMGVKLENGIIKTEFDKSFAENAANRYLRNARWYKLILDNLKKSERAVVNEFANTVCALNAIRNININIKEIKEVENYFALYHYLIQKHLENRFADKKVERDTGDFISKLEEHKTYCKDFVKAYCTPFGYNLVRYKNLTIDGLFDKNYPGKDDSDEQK

B1: target 3 U7C,U22A (mixed)
RNA 1: CACCCGUGCAAAAUUGCAGGGGUCUAAAACGACCUGAAUAUUUCAGAUCAAA
RNA 2: GGGAAUGGAUCCACAUCUACGAAUUCGUUAUUGAUCUGAAAUAUCCAGGUCUGCAGAUCGGAAGAGCACACGU
B2: target 3 U7C,U8A (mixed)
RNA 1: CACCCGUGCAAAAUUGCAGGGGUCUAAAACGACCUGAAUAUUUCAGAUCAAA
RNA 2: GGGAAUGGAUCCACAUCUACGAAUUCGUUUUUGAUCUGAAAUAACCAGGUCUGCAGAUCGGAAGAGCACACGU
B3: target 3 U2A,A13U (mixed)
RNA 1: CACCCGUGCAAAAUUGCAGGGGUCUAAAACGACCUGAAUAUUUCAGAUCAAA
RNA 2: GGGAAUGGAUCCACAUCUACGAAUUCGUUUUUGAUCUGUAAUAUUCAGGACUGCAGAUCGGAAGAGCACACGU
B4: target 3 complement block 1-3 (mixed)
RNA 1: CACCCGUGCAAAAUUGCAGGGGUCUAAAACGACCUGAAUAUUUCAGAUCAAA
RNA 2: GGGAAUGGAUCCACAUCUACGAAUUCGUUUUUGAUCUGAAAUAUUCAGCAGUGCAGAUCGGAAGAGCACACGU
B5: target 3 insA 3' of 8,insA 3' of 2 (mixed)
RNA 1: CACCCGUGCAAAAUUGCAGGGGUCUAAAACGACCUGAAUAUUUCAGAUCAAA
RNA 2: GGGAAUGGAUCCACAUCUACGAAUUCGUUUUUGAUCUGAAAUAUAUCAGGUACUGCAGAUCGGAAGAGCACACGU
B6: target 3 insU 3' of 22 (mixed)
RNA 1: CACCCGUGCAAAAUUGCAGGGGUCUAAAACGACCUGAAUAUUUCAGAUCAAA
RNA 2: GGGAAUGGAUCCACAUCUACGAAUUCGUUUUUUGAUCUGAAAUAUUCAGGUCUGCAGAUCGGAAGAGCACACGU
B7: target 3 C6A,U7A (mixed)
RNA 1: CACCCGUGCAAAAUUGCAGGGGUCUAAAACGACCUGAAUAUUUCAGAUCAAA
RNA 2: GGGAAUGGAUCCACAUCUACGAAUUCGUUUUUGAUCUGAAAUAUAAAGGUCUGCAGAUCGGAAGAGCACACGU
B8: target 3 C1U,U22G (mixed)
RNA 1: CACCCGUGCAAAAUUGCAGGGGUCUAAAACGACCUGAAUAUUUCAGAUCAAA
RNA 2: GGGAAUGGAUCCACAUCUACGAAUUCGUUGUUGAUCUGAAAUAUUCAGGUUUGCAGAUCGGAAGAGCACACGU
B9: target 3 insA 3' of 21,insC 3' of 5 (mixed)
RNA 1: CACCCGUGCAAAAUUGCAGGGGUCUAAAACGACCUGAAUAUUUCAGAUCAAA
RNA 2: GGGAAUGGAUCCACAUCUACGAAUUCGUUUUAUGAUCUGAAAUAUUCACGGUCUGCAGAUCGGAAGAGCACACGU
B10: target 3 insU 3' of 22,insU 3' of 19 (mixed)
RNA 1: CACCCGUGCAAAAUUGCAGGGGUCUAAAACGACCUGAAUAUUUCAGAUCAAA
RNA 2: GGGAAUGGAUCCACAUCUACGAAUUCGUUUUUUGUAUCUGAAAUAUUCAGGUCUGCAGAUCGGAAGAGCACACGU
B11: target 3 G3A,U8G (mixed)
RNA 1: CACCCGUGCAAAAUUGCAGGGGUCUAAAACGACCUGAAUAUUUCAGAUCAAA
RNA 2: GGGAAUGGAUCCACAUCUACGAAUUCGUUUUUGAUCUGAAAUAGUCAGAUCUGCAGAUCGGAAGAGCACACGU
B12: target 3 insC 3' of 9,insG 3' of 2 (mixed)
RNA 1: CACCCGUGCAAAAUUGCAGGGGUCUAAAACGACCUGAAUAUUUCAGAUCAAA
RNA 2: GGGAAUGGAUCCACAUCUACGAAUUCGUUUUUGAUCUGAAAUACUUCAGGUGCUGCAGAUCGGAAGAGCACACGU
B13: target 3 insG 3' of 9,insA 3' of 4 (mixed)
RNA 1: CACCCGUGCAAAAUUGCAGGGGUCUAAAACGACCUGAAUAUUUCAGAUCAAA
RNA 2: GGGAAUGGAUCCACAUCUACGAAUUCGUUUUUGAUCUGAAAUAGUUCAGAGUCUGCAGAUCGGAAGAGCACACGU
B14: target 3 U7A,U8A (mixed)
RNA 1: CACCCGUGCAAAAUUGCAGGGGUCUAAAACGACCUGAAUAUUUCAGAUCAAA
RNA 2: GGGAAUGGAUCCACAUCUACGAAUUCGUUUUUGAUCUGAAAUAAACAGGUCUGCAGAUCGGAAGAGCACACGU
B15: target 3 A11C,U15C (mixed)
RNA 1: CACCCGUGCAAAAUUGCAGGGGUCUAAAACGACCUGAAUAUUUCAGAUCAAA
RNA 2: GGGAAUGGAUCCACAUCUACGAAUUCGUUUUUGAUCCGAACUAUUCAGGUCUGCAGAUCGGAAGAGCACACGU
B16: target 3 insA 3' of 7,insG 3' of 5 (mixed)
RNA 1: CACCCGUGCAAAAUUGCAGGGGUCUAAAACGACCUGAAUAUUUCAGAUCAAA
RNA 2: GGGAAUGGAUCCACAUCUACGAAUUCGUUUUUGAUCUGAAAUAUUACAGGGUCUGCAGAUCGGAAGAGCACACGU
B17: target 3 insG 3' of 5,insA 3' of 4 (mixed)
RNA 1: CACCCGUGCAAAAUUGCAGGGGUCUAAAACGACCUGAAUAUUUCAGAUCAAA
RNA 2: GGGAAUGGAUCCACAUCUACGAAUUCGUUUUUGAUCUGAAAUAUUCAGGAGUCUGCAGAUCGGAAGAGCACACGU
B18: target 3 del2,del19 (mixed)
RNA 1: CACCCGUGCAAAAUUGCAGGGGUCUAAAACGACCUGAAUAUUUCAGAUCAAA
RNA 2: GGGAAUGGAUCCACAUCUACGAAUUCGUUUUUAUCUGAAAUAUUCAGGCUGCAGAUCGGAAGAGCACACGU
B19: target 3 insU 3' of 6,insU 3' of 5 (mixed)
RNA 1: CACCCGUGCAAAAUUGCAGGGGUCUAAAACGACCUGAAUAUUUCAGAUCAAA
RNA 2: GGGAAUGGAUCCACAUCUACGAAUUCGUUUUUGAUCUGAAAUAUUCUAUGGUCUGCAGAUCGGAAGAGCACACGU
B20: target 3 U2C,A11C (mixed)
RNA 1: CACCCGUGCAAAAUUGCAGGGGUCUAAAACGACCUGAAUAUUUCAGAUCAAA
RNA 2: GGGAAUGGAUCCACAUCUACGAAUUCGUUUUUGAUCUGAACUAUUCAGGCCUGCAGAUCGGAAGAGCACACGU
B21: target 3 insG 3' of 1,insG 3' of 1 (mixed)
RNA 1: CACCCGUGCAAAAUUGCAGGGGUCUAAAACGACCUGAAUAUUUCAGAUCAAA
RNA 2: GGGAAUGGAUCCACAUCUACGAAUUCGUUUUUGAUCUGAAAUAUUCAGGUCGGUGCAGAUCGGAAGAGCACACGU
B22: target 3 U2A,G3C (mixed)
RNA 1: CACCCGUGCAAAAUUGCAGGGGUCUAAAACGACCUGAAUAUUUCAGAUCAAA
RNA 2: GGGAAUGGAUCCACAUCUACGAAUUCGUUUUUGAUCUGAAAUAUUCAGCACUGCAGAUCGGAAGAGCACACGU
B23: target 3 U8A,A11C (mixed)
RNA 1: CACCCGUGCAAAAUUGCAGGGGUCUAAAACGACCUGAAUAUUUCAGAUCAAA
RNA 2: GGGAAUGGAUCCACAUCUACGAAUUCGUUUUUGAUCUGAACUAAUCAGGUCUGCAGAUCGGAAGAGCACACGU
B24: target 3 complement block 13-15 (mixed)
RNA 1: CACCCGUGCAAAAUUGCAGGGGUCUAAAACGACCUGAAUAUUUCAGAUCAAA
RNA 2: GGGAAUGGAUCCACAUCUACGAAUUCGUUUUUGAUCACUAAUAUUCAGGUCUGCAGAUCGGAAGAGCACACGU
B25: target 3 insA 3' of 21,insA 3' of 21 (mixed)
RNA 1: CACCCGUGCAAAAUUGCAGGGGUCUAAAACGACCUGAAUAUUUCAGAUCAAA
RNA 2: GGGAAUGGAUCCACAUCUACGAAUUCGUUUUAAUGAUCUGAAAUAUUCAGGUCUGCAGAUCGGAAGAGCACACGU
B26: target 1 U8C,C22A (mixed)
RNA 1: CACCCGUGCAAAAAUGCAGGGGUCUAAAACUGAGCGGAUAACCUCUCUAUGG
RNA 2: GGGAAUGGAUCCACAUCUACGAAUUCGUAACAUAGAGAGGUUACCCGCUCACCGAGAUCGGAAGAGCACACGU
B27: target 1 insA 3' of 5,insG 3' of 1 (mixed)
RNA 1: CACCCGUGCAAAAAUGCAGGGGUCUAAAACUGAGCGGAUAACCUCUCUAUGG
RNA 2: GGGAAUGGAUCCACAUCUACGAAUUCGUACCAUAGAGAGGUUAUCCGACUCAGCCGAGAUCGGAAGAGCACACGU

The target in this data set is T1, EsCas13d, nuclease-dead. Put plainly: crRNA (strand 1, pre-loaded); Mg2+; 40 mM Tris-HCl pH 7.5, 150 mM NaCl, 6 mM MgCl2, 1 mM DTT, 0.1% Tween-20, 0.2 mg/ml BSA; 25 C; 10 min per concentration, then washed. The following applies: tags: His6-TwinStrep-SUMO cleaved; N-terminal SNAP kept (SNAP-Surface 488); label: 3' end held by stalled T7 RNA polymerase.
On to B1, for which the affinity, expressed as Kd, was 88.5 ± 21.5 nM. For B2 the value was 114 ± 28 nM; for B3, around 91.5 nM.

For the molecule B4, the Kd (as a rule, the concentration at which binding is half-saturated) came out at 23.1 ± 3.9 nM. The same measure for B5: 59.5 ± 18.5 nM. The same measure for B6: 17.4 ± 1.8 nM; for B7: 46.5 ± 5 nM; for B8: 77.5 ± 21 nM. The same measure for B9: 69.5 ± 11.5 nM; for B10: 54 ± 14.5 nM. For B11, the Kd worked out at 108 ± 33.5 nM. This Kd lies about 2-fold higher than the previous one. The same measure for B12: 81.5 ± 19 nM.

B13: binding was characterised by a dissociation constant (Kd) of 60 ± 26.5 nM. As for B14, the affinity, expressed as Kd, was 83 ± 15.5 nM. B15: the Kd worked out at 50 ± 9 nM. The same measure for B16: 42 ± 6.5 nM; for B17: 9.2 ± 1.05 nM. Molecule B18 yielded a Kd of 98.5 ± 25 nM. In the case of B19, the affinity, expressed as Kd, was 7.93 ± 0.61 nM.

The molecule B20 gave a Kd of 54.5 ± 7.7 nM. For B21 the value was 85 ± 31.5 nM. The same measure for B22: 23.2 ± 2 nM. For B23 the value was 42 ± 7 nM.

With B24, binding was characterised by a dissociation constant (Kd) of 67.8 ± 31.8 nM. For B25 the value was 29.8 ± 4.05 nM. The same measure for B26: 21.9 ± 2.2 nM; for B27: 5.4 ± 0.4 nM.
